Values quoted from earlier work in publication PMC10742149.
pKd: −log10 of the molar value.

Target: SIRP-α (Homo sapiens) (UniProt P78324)
UniProt P78324, sequence (P78324 31-373): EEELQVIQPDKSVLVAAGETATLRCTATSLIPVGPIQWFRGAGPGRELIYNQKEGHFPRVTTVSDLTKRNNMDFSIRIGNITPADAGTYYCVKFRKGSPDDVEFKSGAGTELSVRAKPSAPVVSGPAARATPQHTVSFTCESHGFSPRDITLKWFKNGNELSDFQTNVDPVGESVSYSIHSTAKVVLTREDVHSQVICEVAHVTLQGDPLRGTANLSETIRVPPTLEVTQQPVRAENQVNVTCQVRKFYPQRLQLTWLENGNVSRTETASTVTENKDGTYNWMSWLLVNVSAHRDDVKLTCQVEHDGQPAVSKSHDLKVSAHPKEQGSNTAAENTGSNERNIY

Substance: CD47 (from UniProt Q08722)
- pKd: 5.70
